In patent US20260217833A1 (APTEVO RESEARCH AND DEVELOPMENT, published 2026):
Changes are numbered by the printed parent chain.

B1: CD4001091 (Fc fusion)
chain: DVQMTQSPILLSASVGDRVTITCRSSQSLVHYNGYTYVHWYQQRTNGSPRLLIYKVSNRFSGVPDRFSGSGSGTDFTLTISSLQPEDIADYFCQQTTHVPLTFGAGTKVEIKGGGGSGGGGSGGGGSGGGGSEVQLVESGGGVVQPGRSLRLSCAASGFTFSSYAMSWVRQAPGKGLEWVASISSAGTYIYYADSVKGRFTISRDNSKNTLYLQMNGLRAEDTAVYYCARHGNGYDPLWYFDVWGQGTLVTVSS
notes: As m65; not shown: wildtype IgG1 Fc region
B2: CD4001094 (Fc fusion)
chain: B1 chain with V137L, V143L, R148G, A193T, T201S, G217S, L249T
notes: as for B1
B3: CD4001096 (Fc fusion)
chain: B1 chain with E133Q, V143L, R148G, E178V, S207A, N216T, G217S, V225I, T248A
notes: as for B1
B4: CD4001098 (Fc fusion)
chain: B1 chain with E133Q, V143L, Q145K, R148G, S207A, T210S, G217S, Q246A, L249T
notes: as for B1
B5: CD4001075 (bispecific antibody)
CD40_1D5 x Fc-Knob: DIVMSQSPSSLAVSVGEKVTMSCKSSQSLLFSVNQKNYLAWYQQKPGQSPKLLIYWASTRESGVPDRFTGSGSGTDFTLTIGSVKAEDLAVYYCQHYYSYPWTFGGGTKLEIKGGGGSGGGGSGGGGSGGGGSQVQLQQSGAELMNPGASVRISCKATGYTFSTSWIEWIKQRPGHGLEWIGEILPGSGSTNYNEKFKGKATFTADTSSNTAYMQLSSLTFEDSAVYYCARGDDGSYVRWYFDVWGAGTTVTVSSEPKSSDKTHTCPPCPAPPAAAPSVFLFPPKPKDTLMISRTPEVTCVVVDVSHEDPEVKFNWYVDGVEVHNAKTKPREEQYNSTYRVVSVLTVLHQDWLNGKEYKCAVSNKALPAPIEKTISKAKGQPREPQVYTLPPSRDELTKNQVSLWCLVKGFYPSDIAVEWESNGQPENNYKTTPPVLDSDGSFFLYSKLTVDKSRWQQGNVFSCSVMHEALHNHYTQKSLSLSPG
CD40_1D5 x Fc-Hole x PDL_5F9: DIVMSQSPSSLAVSVGEKVTMSCKSSQSLLFSVNQKNYLAWYQQKPGQSPKLLIYWASTRESGVPDRFTGSGSGTDFTLTIGSVKAEDLAVYYCQHYYSYPWTFGGGTKLEIKGGGGSGGGGSGGGGSGGGGSQVQLQQSGAELMNPGASVRISCKATGYTFSTSWIEWIKQRPGHGLEWIGEILPGSGSTNYNEKFKGKATFTADTSSNTAYMQLSSLTFEDSAVYYCARGDDGSYVRWYFDVWGAGTTVTVSSEPKSSDKTHTCPPCPAPPAAAPSVFLFPPKPKDTLMISRTPEVTCVVVDVSHEDPEVKFNWYVDGVEVHNAKTKPREEQYNSTYRVVSVLTVLHQDWLNGKEYKCAVSNKALPAPIEKTISKAKGQPREPQVYTLPPSRDELTKNQVSLSCAVKGFYPSDIAVEWESNGQPENNYKTTPPVLDSDGSFFLVSKLTVDKSRWQQGNVFSCSVMHEALHNRFTQKSLSLSPGGGGSPSEVQLVESGGGLVKPGGSLRLSCAASGFTFSDYGMAWVRQAPGKGLEWVAFITSLAYIIYYADSVKGRFTISRDNAKNSLYLQMNSLRAEDTAVYYCARNYGSSPYYFDYWGQGTLVTVSSGGGGSGGGGSGGGGSGGGGSDIQMTQSPSSLSASVGDRVTITCRASQDINKFLSWYQQKPGKAPKLLIHYTSSLQPGVPSRFSGSGSGTDFTLTISSLQPEDFATYYCLQYDNLYTFGQGTKLEIK
B6: CD4001076 (bispecific antibody)
PDL_5F9 x Fc-Knob: EVQLVESGGGLVKPGGSLRLSCAASGFTFSDYGMAWVRQAPGKGLEWVAFITSLAYIIYYADSVKGRFTISRDNAKNSLYLQMNSLRAEDTAVYYCARNYGSSPYYFDYWGQGTLVTVSSGGGGSGGGGSGGGGSGGGGSDIQMTQSPSSLSASVGDRVTITCRASQDINKFLSWYQQKPGKAPKLLIHYTSSLQPGVPSRFSGSGSGTDFTLTISSLQPEDFATYYCLQYDNLYTFGQGTKLEIKEPKSSDKTHTCPPCPAPPAAAPSVFLFPPKPKDTLMISRTPEVTCVVVDVSHEDPEVKFNWYVDGVEVHNAKTKPREEQYNSTYRVVSVLTVLHQDWLNGKEYKCAVSNKALPAPIEKTISKAKGQPREPQVYTLPPSRDELTKNQVSLWCLVKGFYPSDIAVEWESNGQPENNYKTTPPVLDSDGSFFLYSKLTVDKSRWQQGNVFSCSVMHEALHNHYTQKSLSLSPG
PDL_5F9 x Fc-Hole x CD40_2H7: EVQLVESGGGLVKPGGSLRLSCAASGFTFSDYGMAWVRQAPGKGLEWVAFITSLAYIIYYADSVKGRFTISRDNAKNSLYLQMNSLRAEDTAVYYCARNYGSSPYYFDYWGQGTLVTVSSGGGGSGGGGSGGGGSGGGGSDIQMTQSPSSLSASVGDRVTITCRASQDINKFLSWYQQKPGKAPKLLIHYTSSLQPGVPSRFSGSGSGTDFTLTISSLQPEDFATYYCLQYDNLYTFGQGTKLEIKEPKSSDKTHTCPPCPAPPAAAPSVFLFPPKPKDTLMISRTPEVTCVVVDVSHEDPEVKFNWYVDGVEVHNAKTKPREEQYNSTYRVVSVLTVLHQDWLNGKEYKCAVSNKALPAPIEKTISKAKGQPREPQVYTLPPSRDELTKNQVSLSCAVKGFYPSDIAVEWESNGQPENNYKTTPPVLDSDGSFFLVSKLTVDKSRWQQGNVFSCSVMHEALHNRFTQKSLSLSPGGGGSPSDIVMTQSHKFMSTSVGDRVSITCKASQDVNTAVAWYQQKPGQSPKLLIYSASYRYTGVPDRFTGSGSGTDFTFTISSVQAEDLAVYYCQQHYSTPWTFGGGTKLEIKGGGGSGGGGSGGGGSGGGGSQVQLQQSGAELAKPGASVKMSCKASGYAFTTYWMHWVKQRPGQGLEWIGYINPTTGYTDYNQKFKDKATLTADKSSSTAYMQLSSLTSEDSAVYYCARWGLPPFAYWGQGTLVTVSA
B7: CD4001078 (bispecific antibody)
PDL_5F9 x Fc-Knob: B6 PDL_5F9 x Fc-Knob
PDL_5F9 x Fc-Hole x CD40_1D5: EVQLVESGGGLVKPGGSLRLSCAASGFTFSDYGMAWVRQAPGKGLEWVAFITSLAYIIYYADSVKGRFTISRDNAKNSLYLQMNSLRAEDTAVYYCARNYGSSPYYFDYWGQGTLVTVSSGGGGSGGGGSGGGGSGGGGSDIQMTQSPSSLSASVGDRVTITCRASQDINKFLSWYQQKPGKAPKLLIHYTSSLQPGVPSRFSGSGSGTDFTLTISSLQPEDFATYYCLQYDNLYTFGQGTKLEIKEPKSSDKTHTCPPCPAPPAAAPSVFLFPPKPKDTLMISRTPEVTCVVVDVSHEDPEVKFNWYVDGVEVHNAKTKPREEQYNSTYRVVSVLTVLHQDWLNGKEYKCAVSNKALPAPIEKTISKAKGQPREPQVYTLPPSRDELTKNQVSLSCAVKGFYPSDIAVEWESNGQPENNYKTTPPVLDSDGSFFLVSKLTVDKSRWQQGNVFSCSVMHEALHNRFTQKSLSLSPGGGGSPSDIVMSQSPSSLAVSVGEKVTMSCKSSQSLLFSVNQKNYLAWYQQKPGQSPKLLIYWASTRESGVPDRFTGSGSGTDFTLTIGSVKAEDLAVYYCQHYYSYPWTFGGGTKLEIKGGGGSGGGGSGGGGSGGGGSQVQLQQSGAELMNPGASVRISCKATGYTFSTSWIEWIKQRPGHGLEWIGEILPGSGSTNYNEKFKGKATFTADTSSNTAYMQLSSLTFEDSAVYYCARGDDGSYVRWYFDVWGAGTTVTVSS
B8: CD4001081 (bispecific antibody)
Fc-knob x CD40_1D5: EPKSSDKTHTCPPCPAPPAAAPSVFLFPPKPKDTLMISRTPEVTCVVVDVSHEDPEVKFNWYVDGVEVHNAKTKPREEQYNSTYRVVSVLTVLHQDWLNGKEYKCAVSNKALPAPIEKTISKAKGQPREPQVYTLPPSRDELTKNQVSLWCLVKGFYPSDIAVEWESNGQPENNYKTTPPVLDSDGSFFLYSKLTVDKSRWQQGNVFSCSVMHEALHNHYTQKSLSLSPGGGGSPSDIVMSQSPSSLAVSVGEKVTMSCKSSQSLLFSVNQKNYLAWYQQKPGQSPKLLIYWASTRESGVPDRFTGSGSGTDFTLTIGSVKAEDLAVYYCQHYYSYPWTFGGGTKLEIKGGGGSGGGGSGGGGSGGGGSQVQLQQSGAELMNPGASVRISCKATGYTFSTSWIEWIKQRPGHGLEWIGEILPGSGSTNYNEKFKGKATFTADTSSNTAYMQLSSLTFEDSAVYYCARGDDGSYVRWYFDVWGAGTTVTVSS
PDL_5F9 x Fc-Hole x CD40_1D5: B7 PDL_5F9 x Fc-Hole x CD40_1D5
B9: CD4001086 (Fc fusion)
chain: EVVMTQSPGTLSLSPGERATLSCRSSQSLVHYNGYTYLHWYQQKPGQAPRLLIYKVSNRFSGIPARFSGSGSGTDFTLTISRLEPEDLAVYFCSQTTHVPLTFGQGTKVEIKGGGGSGGGGSGGGGSGGGGSEVQLVESGGGLVQPGRSLRLSCAASGFTFSSYAMSWVRQAPGKGLEWVASISSAGTYIYYADSVQGRFTISRDNGKNSLYLQMNSLRAEDTALYYCARHGNGYDPLWYFDVWGQGTMVTVSS
notes: Partly humanized 5B9 scFv on the N-terminus of a wildtype IgG1 Fc; not shown: wildtype IgG1 Fc region
B10: CD4001087 (Fc fusion)
chain: EVVMTQSPDTLSVSPGERATLSCRSSQSLVHYNGYTYLHWYQQKPGQVPRLLIYKVSNRFSGVPARFTGSGSGTEFTLTISSLQSEDFAVYFCSQTTHVPLTFGQGTKLEIKGGGGSGGGGSGGGGSGGGGSEVQLVESGGGLVQPGRSLRLSCAASGFTFSSYAMSWVRQAPGKGLEWVASISSAGTYIYYADSVQGRFTISRDNGKNSLYLQMNSLRAEDTALYYCARHGNGYDPLWYFDVWGQGTMVTVSS
notes: as for B1
B11: CD4001097 (Fc fusion)
chain: B9 chain with E133Q, Q145K, R148G, Q197K, G207A, L225V, Q246A, M249T
notes: as for B1
B12: CD4001092 (Fc fusion)
chain: DVVMTQSPDSLAVSLGERATINCRSSQSLVHYNGYTYLHWYQQKPGQPPKLLIYKVSNRFSGVPDRFSGSGSGTDFTLTISSLQAEDVAVYFCSQTTHVPLTFGAGTKLELRGGGGSGGGGSGGGGSGGGGSEVQLVESGGGVVQPGRSLRLSCAASGFTFSSYAMSWVRQAPGKGLEWVASISSAGTYIYYADSVKGRFTISRDNSKNTLYLQMNGLRAEDTAVYYCARHGNGYDPLWYFDVWGQGTLVTVSS
notes: as for B1
B13: CD4001093 (Fc fusion)
chain: DVVMTQSPDTLSLSPGERATLSCRSSQSLVHYNGYTYLHWYQQQPGQAPRLLIYKVSNRFSGIPDRFSGSGSGTDFTLTISRLEPEDFAVYFCSQTTHVPLTFGQGTKLEIKGGGGSGGGGSGGGGSGGGGSEVQLLESGGGLVQPGGSLRLSCAASGFTFSSYAMSWVRQAPGKGLEWVASISSAGTYIYYTDSVKGRFSISRDNSKNTLYLQMNSLRAEDTAVYYCARHGNGYDPLWYFDVWGQGTTVTVSS
notes: as for B1
B14: CD4001095 (Fc fusion)
chain: B13 chain with E133Q, L137V, E178V, T193A, S201T, S207A, N216T, V225I, T248A, T249L
notes: as for B1

How the values were obtained:
human CD40 full-length = target: T1, human CD40 full-length (human, UniProt P25942 21-277); assay: flow cytometry, CHOK1SV/human CD40 cells
T1 construct: Also used for CD40 of Daudi cells, of CD40-expressing HEK293 cells and of the BPS CD40/NFkB HEK293 reporter cells where the row says so; also called CD4001012; CHOK1SV/CD40
T1 sequence (P25942 21-277): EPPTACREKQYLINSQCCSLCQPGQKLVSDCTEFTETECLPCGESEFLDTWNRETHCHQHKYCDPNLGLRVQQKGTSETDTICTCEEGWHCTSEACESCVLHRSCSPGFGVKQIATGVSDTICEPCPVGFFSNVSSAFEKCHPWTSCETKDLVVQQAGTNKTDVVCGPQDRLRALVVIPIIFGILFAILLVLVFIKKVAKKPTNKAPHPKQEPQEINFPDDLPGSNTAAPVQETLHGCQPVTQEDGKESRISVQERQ

Human PD-L1 full-length = target: T2, Human PD-L1 full-length (human, UniProt Q9NZQ7 19-290); assay: flow cytometry, CHOK1SV/human PD-L1 cells
T2 construct: also called PDL01021; CHOK1SV/huPDL1
T2 sequence (Q9NZQ7 19-290): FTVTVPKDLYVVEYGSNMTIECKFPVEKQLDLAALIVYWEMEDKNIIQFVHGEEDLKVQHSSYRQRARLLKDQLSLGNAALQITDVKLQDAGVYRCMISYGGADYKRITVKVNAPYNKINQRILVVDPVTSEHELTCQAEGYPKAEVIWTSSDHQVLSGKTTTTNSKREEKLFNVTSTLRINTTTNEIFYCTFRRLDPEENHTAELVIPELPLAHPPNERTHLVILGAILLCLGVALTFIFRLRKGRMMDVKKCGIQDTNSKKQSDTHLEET

Row | Binder | binding result (human CD40 full-length) | also measured
1 | B1 | binds | –
2 | B2 | binds | –
3 | B3 | binds | –
4 | B4 | binds | –
5 | B5 | – | binding result (Human PD-L1 full-length): binds
6 | B6 | – | binding result (Human PD-L1 full-length): binds
7 | B7 | – | binding result (Human PD-L1 full-length): binds
8 | B8 | – | binding result (Human PD-L1 full-length): binds
9 | B9 | – | EC50 (read off the curve) (human CD40 full-length): ~2 nM
10 | B10 | binds | –
11 | B11 | – | EC50 (read off the curve) (human CD40 full-length): ~4 nM
12 | B12 | binds | –
13 | B13 | binds | –
14 | B14 | binds | –
